Test results from patent publication US20220242962A1 (APTEVO RESEARCH AND DEVELOPMENT, published 2022).

T1: Human OX40 ECD-AFH (human)
T1 construct: ECD'; entry includes the C-terminal tags; also called OXF003; Human OX40 ECD-avi-flag-his
T1 chain: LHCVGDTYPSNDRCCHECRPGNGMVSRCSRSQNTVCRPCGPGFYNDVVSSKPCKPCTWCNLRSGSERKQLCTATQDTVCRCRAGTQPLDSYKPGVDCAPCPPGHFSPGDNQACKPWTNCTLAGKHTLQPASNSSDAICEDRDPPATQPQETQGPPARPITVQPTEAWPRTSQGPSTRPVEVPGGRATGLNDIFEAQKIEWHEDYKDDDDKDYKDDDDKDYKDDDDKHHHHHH

T2: Full-length Cyno 4-1BB (cynomolgus monkey, UniProt Q07011 24-255 (human entry))
T2 construct: on Jurkat or CHO cells; also called FOB006; cynomolgus 4-1BB
T2 chain: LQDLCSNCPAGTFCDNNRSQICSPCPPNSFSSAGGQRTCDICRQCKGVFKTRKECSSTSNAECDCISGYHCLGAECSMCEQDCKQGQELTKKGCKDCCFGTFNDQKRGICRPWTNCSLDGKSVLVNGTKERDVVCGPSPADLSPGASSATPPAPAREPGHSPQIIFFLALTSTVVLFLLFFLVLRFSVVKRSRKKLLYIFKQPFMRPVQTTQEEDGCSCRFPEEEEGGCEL

T3: Full-length Human OX40 (human, UniProt P43489 29-277)
T3 sequence: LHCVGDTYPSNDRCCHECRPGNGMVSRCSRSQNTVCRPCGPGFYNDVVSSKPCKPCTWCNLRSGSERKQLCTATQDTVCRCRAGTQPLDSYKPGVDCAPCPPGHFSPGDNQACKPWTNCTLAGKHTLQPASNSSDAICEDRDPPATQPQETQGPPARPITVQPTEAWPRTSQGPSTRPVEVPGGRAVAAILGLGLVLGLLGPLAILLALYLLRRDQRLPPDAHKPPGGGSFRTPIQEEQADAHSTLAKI

T4: Full-length Cyno OX40 (cynomolgus monkey, UniProt P43489 29-277 (human entry))
T4 construct: on CHO-K1SV cells; also called OXF004; cynomolgus OX40
T4 chain: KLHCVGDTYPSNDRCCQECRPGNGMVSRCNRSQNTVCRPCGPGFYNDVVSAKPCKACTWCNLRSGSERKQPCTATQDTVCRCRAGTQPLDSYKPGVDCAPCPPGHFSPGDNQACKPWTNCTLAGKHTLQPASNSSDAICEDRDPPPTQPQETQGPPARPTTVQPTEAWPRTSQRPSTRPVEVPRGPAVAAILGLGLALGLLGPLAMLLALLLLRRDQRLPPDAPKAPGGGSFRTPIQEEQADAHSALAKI

B1: FXX01099 (bispecific antibody)
chain: EVQLVQSGAEVKKPGASVKVSCKASGYTFTSYWMNWVRQAPGQGLEWMGNIYPSGGSTNYAQKFQGRVTMTVDTSTSTVYMELSSLRSEDTAVYYCASFSDGYYAYAMDYWGQGTLVTVSSGGGGSGGGGSGGGGSGGGGSEIVMTQSPATLSLSPGERATLSCRASQSVSSYLNWYQQKPGQAPRLLIYYASRRHTGIPARFSGSGSGTDFTLTISSLQPEDFAVYYCQQGYNLPYTFGQGTKVEIKEPKSSDKTHTCPPCPAPPAAAPSVFLFPPKPKDTLMISRTPEVTCVVVDVSHEDPEVKFNWYVDGVEVHNAKTKPREEQYNSTYRVVSVLTVLHQDWLNGKEYKCAVSNKALPAPIEKTISKAKGQPREPQVYTLPPSRDELTKNQVSLTCLVKGFYPSDIAVEWESNGQPENNYKTTPPVLDSDGSFFLYSKLTVDKSRWQQGNVFSCSVMHEALHNHYTQKSLSLSPGGGGSPSSYVLTQPPSVSVAPGKTARITCGGNNIGSKSVNWFQQKPGQAPVLVVYDDSGRPSGIPERFSGSTSGNTATLTISRVEAGDEADYYCQVWDSSSDHVVFGGGTKLTVLGGGGSGGGGSGGGGSGGGGSQVQLVESGGGVVQPGRSLRLSCAASGFTLSYYGMHWVRQAPGKGLEWVAAISHDGSDKYYADSVKGRFTISRDNSKNTLYLQMNSLRAEDTAVYYCSNDQFDPWGQGTLVTVSSR
notes: ADAPTIR anti-4-1BB (HL) x anti-OX40 with Q17K; also called FX01099
B2: FXX01104 (bispecific antibody)
chain: EIVMTQSPATLSLSPGERATLSCRASQSVSSYLNWYQQKPGQAPRLLIYYASRRHTGIPARFSGSGSGTDFTLTISSLQPEDFAVYYCQQGYNLPYTFGQGTKVEIKGGGGSGGGGSGGGGSGGGGSEVQLVQSGAEVKKPGASVKVSCKASGYTFTSYWMNWVRQAPGQGLEWMGNIYPSGGSTNYAQKFQGRVTMTVDTSTSTVYMELSSLRSEDTAVYYCASFSDGYYAYAMDYWGQGTLVTVEPKSSDKTHTCPPCPAPPAAAPSVFLFPPKPKDTLMISRTPEVTCVVVDVSHEDPEVKFNWYVDGVEVHNAKTKPREEQYNSTYRVVSVLTVLHQDWLNGKEYKCAVSNKALPAPIEKTISKAKGQPREPQVYTLPPSRDELTKNQVSLTCLVKGFYPSDIAVEWESNGQPENNYKTTPPVLDSDGSFFLYSKLTVDKSRWQQGNVFSCSVMHEALHNHYTQKSLSLSPGGGGSPSSYVLTQPPSVSVAPGQTARITCGGNNIGSKSVNWFQQKPGQAPVLVVYDDSGRPSGIPERFSGSTSGNTATLTISRVEAGDEADYYCQVWDSSSDHVVFGGGTKLTVLGGGGSGGGGSGGGGSGGGGSQVQLVESGGGVVQPGRSLRLSCAASGFTLSYYGMHWVRQAPGKGLEWVAAISHDGSDKYYADSVKGRFTISRDNSKNTLYLQMNSLRAEDTAVYYCSNDQFDPWGQGTLVTVSSR
notes: ADAPTIR anti-4-1BB (LH) x anti-OX40; also called FX01104
B3: FXX01105 (bispecific antibody)
chain: EIVMTQSPATLSLSPGERATLSCRASQSVSSYLNWYQQKPGQAPRLLIYYASRRHTGIPARFSGSGSGTDFTLTISSLQPEDFAVYYCQQGYNLPYTFGQGTKVEIKGGGGSGGGGSGGGGSGGGGSEVQLVQSGAEVKKPGASVKVSCKASGYTFTSYWMNWVRQAPGQGLEWMGNIYPSGGSTNYAQKFQGRVTMTVDTSTSTVYMELSSLRSEDTAVYYCASFSDGYYAYAMDYWGQGTLVTVEPKSSDKTHTCPPCPAPPAAAPSVFLFPPKPKDTLMISRTPEVTCVVVDVSHEDPEVKFNWYVDGVEVHNAKTKPREEQYNSTYRVVSVLTVLHQDWLNGKEYKCAVSNKALPAPIEKTISKAKGQPREPQVYTLPPSRDELTKNQVSLTCLVKGFYPSDIAVEWESNGQPENNYKTTPPVLDSDGSFFLYSKLTVDKSRWQQGNVFSCSVMHEALHNHYTQKSLSLSPGGGGSPSSYVLTQPPSVSVAPGKTARITCGGNNIGSKSVNWFQQKPGQAPVLVVYDDSGRPSGIPERFSGSTSGNTATLTISRVEAGDEADYYCQVWDSSSDHVVFGGGTKLTVLGGGGSGGGGSGGGGSGGGGSQVQLVESGGGVVQPGRSLRLSCAASGFTLSYYGMHWVRQAPGKGLEWVAAISHDGSDKYYADSVKGRFTISRDNSKNTLYLQMNSLRAEDTAVYYCSNDQFDPWGQGTLVTVSSR
notes: ADAPTIR anti-4-1BB (LH) x anti-OX40 with Q17K; also called FX01105

Experiments:
Human 4-1BB ECD-AFH = target: T5, Human 4-1BB ECD-AFH (human); assay: SPR, construct captured, monomeric ECD as analyte
T5 construct: entry includes the tags; also called FOB003; HUMAN CD137 ECD-AVI-FLAG-HIS
Protocol: (§1) Mouse anti-human IgG (GE, BR-1008-39) at 25 μg/ml in 10 mM sodium acetate pH 5.0 was immobilized at a density of ˜10,000 response units (RU) onto each flow cell of a CM5 research-grade sensor chip (GE) by standard amine coupling chemistry. Each binding protein at approximately 100 nM in HBS-EP+ with 0.2% BSA buffer was captured in a flow cell with the immobilized anti-human IgG at a flow rate of 10 μL/min for 20 seconds, leaving one flow cell surface unmodified as the reference. Using a single-cycle kinetics mode, five different concentrations of ECD were sequentially injected through each flow cell at 30 μL/min for 300 seconds followed by a 600 second dissociation period. Regeneration was achieved by injection of 3 M MgCl₂ at a flow rate of 30 μL/min for 30 seconds followed by HBS-EP+ with 0.2% BSA buffer stabilization for 1 min.
(§2) Sensorgrams obtained from kinetic SPR measurements were analyzed by the double subtraction method. The signal from the reference flow cell was subtracted from the analyte binding response obtained from flow cells with immobilized or captured ligands. Buffer reference responses were then averaged from multiple injections. The averaged buffer reference responses were then subtracted from analyte binding responses, and the final double-referenced data were analyzed with Biacore T200 Evaluation software (2.0, GE), globally fitting data to derive kinetic parameters. All sensorgrams were fitted using a simple one-to-one binding model.
(§3) Protein was produced by transient expression, purified by ProA chromatography and prep SEC.

Human OX40 ECD-AFH = target: T1, Human OX40 ECD-AFH; assay: SPR, construct captured, monomeric ECD as analyte
Protocol: as §1, §2, §3

Full-length Cyno 4-1BB = target: T2, Full-length Cyno 4-1BB; assay: flow cytometry on Jurkat cells transfected with cynomolgus 4-1BB, goat anti-human Fc secondary antibody, MFI (Mean)
Protocol: (§4) FIGS. 12A-12D show the binding of anti-4-1BB x anti-OX40 constructs, with additional humanization in 4-1BB and altered orientations of binding domains, human (12A) or cynomolgus (12C) 4-1BB-expressing Jurkat cells or human (12B) or cynomolgus (12D) OX40-expressing CHOK1SV cells. Serial dilutions of ADAPTIR™ constructs were incubated with transfected cells and subsequently labelled with a fluorescently-conjugated goat-a-human Fc secondary antibody. […] (See Example 19.)
(§5) Binding studies were performed using the flow cytometry-based staining procedures described above.

Full-length Human OX40 [1] = target: T3, Full-length Human OX40; assay: cell-based or functional assay
Full-length Human 4-1BB [2] = target: T6, Full-length Human 4-1BB (human, UniProt Q07011 24-255); assay: cell-based or functional assay
Full-length Human OX40 [3] = target: T3, Full-length Human OX40; assay: flow cytometry, CHO cells expressing human OX40
Protocol: as §4, §5

Full-length Human 4-1BB [4] = target: T6, Full-length Human 4-1BB; assay: flow cytometry, Jurkat cells expressing human 4-1BB
Protocol: as §4, §5

Full-length Cyno OX40 = target: T4, Full-length Cyno OX40; assay: flow cytometry on CHOK1SV cells transfected with cynomolgus OX40, goat anti-human Fc secondary antibody, MFI (Mean)
Protocol: as §4, §5

Binder	Kd (Human 4-1BB ECD-AFH) [nM]	koff (Human 4-1BB ECD-AFH) [s⁻¹]	kon (Human 4-1BB ECD-AFH) [M⁻¹ s⁻¹]	Kd (Human OX40 ECD-AFH) [nM]	koff (Human OX40 ECD-AFH) [s⁻¹]	kon (Human OX40 ECD-AFH) [M⁻¹ s⁻¹]	EC50 (read off the curve) (Full-length Cyno 4-1BB) [nM]	OX40 Reporter Assay EC50 (Full-length Human OX40 [1]) [nM]	OX40 Reporter Assay Max induction (Full-length Human OX40 [1])	4-1BB Reporter Assay EC50 (Full-length Human 4-1BB [2]) [nM]	4-1BB Reporter Assay Max induction (Full-length Human 4-1BB [2])	EC50 (Full-length Human OX40 [3]) [nM]	max MFI (Full-length Human OX40 [3]) [MFI]	EC50 (Full-length Human 4-1BB [4]) [nM]	max MFI (Full-length Human 4-1BB [4]) [MFI]	EC50 (read off the curve) (Full-length Cyno OX40) [nM]
B1	14	0.0046	330000	0.4	0.00028	770000	~0.3	0.01	1.93e+06	0.017	6.65e+06	0.36	10400	0.25	4900	~0.8
B2	17	0.0055	320000	0.5	0.00032	710000	~0.3	0.013	1.99e+06	0.011	6.11e+06	0.32	10400	0.31	4860	~0.8
B3	19	0.0055	290000	0.4	0.00027	710000	~0.3	0.01	1.97e+06	0.014	6.58e+06	0.35	10500	0.33	4940	~0.8
